Source: patent US5688671A, “Mutant aspartokinase gene” (Ajinomoto Co., Inc., priority 1993, dated 1997)
Numbering of substitutions follows the chain as printed.

B1: Wild type: wild type aspartokinase of Corynebacterium glutamicum ATCC 13869, plasmid p399AKY (p399AKYB); SEQ ID NO: 3 and 5 (protein)
chain: MEEAVLTGVATDKSEAKVTVLGISDKPGEAAKVFRALADAEINIDMVLQNVSSVEDGTTDITFTCPRADGRRAMEILKKLQVQGNWTNVLYDDQVGKVSLVGAGMKSHPGVTAEFMEALRDVNVNIELISTSEIRISVLIREDDLDAAARALHEQFQLGGEDEAVVYAGTGR
B2: Val: mutant aspartokinase 279 Ala→Val, plasmid p399AKAV (p399AKAVB) (protein, UniProt P26512 1-421, looked up, variant A279V)
Aspartokinase: MALVVQKYGGSSLESAERIRNVAERIVATKKAGNDVVVVCSAMGDTTDELLELAAAVNPVPPAREMDMLLTAGERISNALVAMAIESLGAEAQSFTGSQAGVLTTERHGNARIVDVTPGRVREALDEGKICIVAGFQGVNKETRDVTTLGRGGSDTTAVALAAALNADVCEIYSDVDGVYTADPRIVPNAQKLEKLSFEEMLELAAVGSKILVLRSVEYARAFNVPLRVRSSYSNDPGTLIAGSMEDIPVEEAVLTGVATDKSEAKVTVLGISDKPGEVAKVFRALADAEINIDMVLQNVSSVEDGTTDITFTCPRSDGRRAMEILKKLQVQGNWTNVLYDDQVGKVSLVGAGMKSHPGVTAEFMEALRDVNVNIELISTSEIRISVLIREDDLDAAARALHEQFQLGGEDEAVVYAGTGR
B3: Cys: mutant aspartokinase 279 Ala→Cys, plasmid p399AKAC (p399AKACB) (protein, UniProt P26512 1-421, looked up, variant A279C)
Aspartokinase: B2 Aspartokinase with V279C
B4: Thr: mutant aspartokinase 279 Ala→Thr from AJ3463, plasmid p399AK9 (p399AK9B); SEQ ID NO: 4 and 6 (protein)
chain: B1 chain with A30T
B5: Pro: mutant aspartokinase 279 Ala→Pro, plasmid p399AKAP (p399AKAPB) (protein, UniProt P26512 1-421, looked up, variant A279P)
Aspartokinase: B2 Aspartokinase with V279P
B6: Asp: mutant aspartokinase 279 Ala→Asp, plasmid p399AKAD (protein, UniProt P26512 1-421, looked up, variant A279D)
Aspartokinase: B2 Aspartokinase with V279D
B7: Ser: mutant aspartokinase 279 Ala→Ser, plasmid p399AKAS (p399AKASB) (protein, UniProt P26512 1-421, looked up, variant A279S)
Aspartokinase: B2 Aspartokinase with V279S

What follows are molecules tested on AK (assay: Thermal stability of AK, treatment at 55° C. for 1.5 hour). Details: not given.
Type: biochemical, Corynebacterium glutamicum
Description: The activity-holding ratio after a treatment at 55° C. for 90 minutes is indicated by %.
Thermal stability was investigated as an index of stability of the enzyme structure constructed by the introduction of mutation. The treatment condition was set at 55° C. for 1.5 hour in which the activity of the wild type AK was about 80%.

Molecule	activity after thermal treatment (activity-holding ratio)
B1	about 80%

Same assay, conditions: FIG. 6

Molecule	thermal stability compared with the wild type
B2	highest stability
B3	higher stability than that of the wild type
B4	higher stability than that of the wild type

The molecules below were run on AK (assay: AK enzyme activity and inhibition by lysine/threonine in cell-free extracts of AK-deficient Escherichia coli Gif106M1 transformants). Details: E. coli Gif106M1 cell-free extracts.
Type: biochemical, Corynebacterium glutamicum
Description: Bacteriol. 112, 84-92 (1972), Theze, J. et al., J. […] It is known that most of genes of bacteria belonging to the genus Corynebacterium are expressed in Escherichia coli. In addition, the AK gene was ligated at a position downstream from lac promoter on pHSG399. Thus it was postulated that the gene could be expressed in Escherichia coli. […] Thus it was confirmed that AK from the bacteria belonging to the genus Corynebacterium was expressed and operated in cells of Escherichia coli. Subsequently, cell-free extracts were prepared from bacterial cells, and the enzyme activity of AK was measured. Upon measurement of the enzyme activity of AK, various concentrations of lysine and threonine were added to enzyme reaction solutions to investigate the degree of inhibition (FIG. 2). […] (Ki value: 0.4 mM→5.0 mM). […] Cell-free extracts were prepared, and enzymes were analyzed.

Molecule	concerted inhibition by lysine+threonine	degree of activation by threonine	inhibition by lysine alone as compared with the wild type	AK activity	inhibition by threonine desensitized
B5	desensitized	not less than 120%	mitigated	–	–
B6	–	–	–	inactivated	–
B7	enhanced	–	equivalent to that in the wild type	–	–
B3	enhanced	–	equivalent to that in the wild type	–	–
B4	–	–	little improvement	–	100%

Same assay, conditions: E. coli Gif106M1 cell-free extracts; Table 4

Molecule	Specific activity
B5	2.8 mU/mg protein
B2	21.8 mU/mg protein
B6	1.5 mU/mg protein
B7	8.2 mU/mg protein
B3	15.4 mU/mg protein
B4	12.9 mU/mg protein
B1	15.3 mU/mg protein

Same assay, conditions: fraction of wild type specific activity

Molecule	specific activity relative to that of the wild type
B5	about 1/5

Same assay, conditions: lysine 5 mM+threonine 5 mM; activity without addition = 100%; E. coli Gif106M1 extracts

Molecule	5 mM Lys + Thr (degree of desensitization of inhibition, activity-holding ratio)
B5	103.8%
B2	52.3%
B7	18.4%
B3	17.0%
B4	50.4%
B1	9.2%

Same assay, conditions: lysine 5 mM; activity without addition = 100%; E. coli Gif106M1 extracts

Molecule	5 mM Lys (degree of desensitization of inhibition, activity-holding ratio)
B5	76.9%
B2	51.1%
B7	52.6%
B3	56.3%
B4	47.0%
B1	42.3%

Same assay, conditions: threonine 5 mM; activity without addition = 100%; E. coli Gif106M1 extracts

Molecule	5 mM Thr (degree of desensitization of inhibition, activity-holding ratio)
B5	126.9%
B2	98.3%
B7	131.6%
B3	108.1%
B4	103.5%
B1	62.3%

The molecules below were run on aspartokinase (assay: Aspartokinase (AK) activity of cell-disrupted solutions of Corynebacterium glutamicum strains, with and without L-lysine/L-threonine). Details: 2 mM lysine + threonine; plasmids introduced into AJ12036.
Type: biochemical, Corynebacterium glutamicum (Brevibacterium lactofermentum)
Description: When a wild type strain is used as a donor for the DNA fragment containing the AK gene, a DNA fragment containing a wild type AK gene can be obtained. The DNA fragment containing the gene for AK in which synergistic feedback inhibition by L-lysine and L-threonine is substantially desensitized can be obtained by using a mutant strain in which synergistic feedback inhibition on the AK activity by L-lysine and L-threonine is substantially desensitized. The mutant strain can be obtained, for example, from a group of cells subjected to an ordinary mutation treatment, ultraviolet light irradiation, or a treatment with a mutating agent such as N-methyl-N'-nitro-N-nitrosoguanidine (NTG). The AK activity can be measured by using a method described in Miyajima, R. et al., The Journal of Biochemistry (1968), 63(2), 139-148.
Strains were prepared by introducing the wild type AK plasmid p399AKYB and the mutant AK plasmid p399AK9B respectively into AJ12036 strain (FERM P-7559) as a wild type strain of Corynebacterium glutamicum (Brevibacterium lactofermentum). The genes were introduced into Corynebacterium by means of an electric pulse method. The aspartokinase activity was measured for Corynebacterium glutamicum (Brevibacterium lactofermentum) AJ12036 strain as a host, AJ12690 strain harboring the wild type AK plasmid, and AJ12691 (FERM P12918) strain harboring the mutant AK plasmid. The activity was measured in accordance with an ordinary method (see Miyajima, R. et al., The Journal of Biochemistry (1968) 63(2), 139-148). […]
Strains were prepared by introducing 8 kinds of the plasmids shown in Table 3 into AJ12036 strain (FERM P-7559) as a wild type strain of Corynebacterium glutamicum (Brevibacterium lactofermentum) in the same manner as Example 3. The AK activity was measured for each of the strains. […] The desensitization degree of inhibition by lysine and/or threonine was similar to those in Example 6.

Molecule	2 mM Lys + Thr (desensitization degree of inhibition)
B5	85.2%
B2	75.5%
B7	37.0%
B3	60.6%
B4	78.3%
B1	6.2%

Same assay, conditions: lysine 5 mM; plasmids introduced into AJ12036

Molecule	5 mM Lys (desensitization degree of inhibition)
B5	77.5%
B2	60.5%
B7	55.0%
B3	66.5%
B4	58.7%
B1	52.7%

Same assay, conditions: lysine alone, threonine alone and concerted inhibition; plasmids in AJ12036

Molecule	degree of desensitization of inhibition, ranking
B5	highest degree of desensitization of inhibition

Same assay, conditions: plasmids introduced into AJ12036; Table 5

Molecule	Specific activity
B5	125.0 mU/mg protein
B2	448.9 mU/mg protein
B7	406.8 mU/mg protein
B3	267.0 mU/mg protein
B4	374.4 mU/mg protein
B1	316.4 mU/mg protein

Same assay, conditions: threonine 5 mM; plasmids introduced into AJ12036

Molecule	5 mM Thr (desensitization degree of inhibition)
B5	123.2%
B2	103.5%
B7	114.4%
B3	135.7%
B4	109.1%
B1	86.8%

These molecules were tested on Corynebacterium glutamicum (Brevibacterium lactofermentum) AJ12036 (assay: L-lysine productivity evaluated by cultivation in production medium). Details: plasmids introduced into AJ12036; cultivation as in Example 3.
Type: cell-based
Description: The lysine productivity was evaluated by cultivation for the wild type strain AJ12036, the wild type AK plasmid-harboring strain AJ12690, and the mutant AK plasmid-harboring strain AJ12691 (FERM P-12918). The evaluation by cultivation was performed by inoculating the strains to a production medium (containing glucose 100 g, (NH4)2 SO4 55 g, KH2 PO4 1 g, MgSO4.7H2 O 1 g, soybean protein acid hydrolysate "Mamenou" (product of Ajinomoto Co., Ltd., trade name) 50 ml, FeSO4.7H2 O 10 mg, MnSO4.4H2 O 10 mg, nicotinic acid amide 5 mg, and CaCO3 50 g in 1 l of pure water, pH 8.0), and cultivating them with reciprocatory shaking at 31.5° C. for 72 hours. […] The plasmid-holding ratio upon completion of the cultivation was measured by using an index of chloramphenicol resistance as a drug resistance marker of the plasmid.
The lysine productivity was further evaluated by cultivation for the 9 kinds of these strains by using a method similar to that in Example 3.

Molecule	Lys--HCl
B5	25.11 g/L
B2	25.02 g/L
B7	5.72 g/L
B3	13.41 g/L
B4	24.25 g/L
B1	0.00 g/L
